The values below are quoted from earlier work in paper PMC4017372.

The target of data set [1] is UreE (Helicobacter pylori) (UniProt B5Z672). As to the kind of experiment: ITC.
In data set [2] the target is HypB (Helicobacter pylori) (UniProt O25560).
Sequence of UniProt O25560 (O25560 whole entry): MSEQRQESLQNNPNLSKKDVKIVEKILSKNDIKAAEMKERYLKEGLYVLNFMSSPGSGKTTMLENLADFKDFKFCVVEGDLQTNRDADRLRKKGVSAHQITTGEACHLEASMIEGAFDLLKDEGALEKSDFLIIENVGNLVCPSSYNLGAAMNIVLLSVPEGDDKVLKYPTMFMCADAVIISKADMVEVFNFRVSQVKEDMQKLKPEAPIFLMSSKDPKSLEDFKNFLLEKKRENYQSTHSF

Sequence of UniProt B5Z672 (B5Z672 whole entry): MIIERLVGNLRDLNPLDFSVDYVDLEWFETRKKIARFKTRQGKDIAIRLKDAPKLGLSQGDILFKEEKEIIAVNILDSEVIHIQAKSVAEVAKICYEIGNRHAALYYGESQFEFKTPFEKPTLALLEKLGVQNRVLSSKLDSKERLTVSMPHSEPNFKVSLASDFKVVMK

Take UreG (from UniProt B6JPH1): in data set [1], the Kd – broadly, a measure of binding affinity in units of concentration – is 4 µM.

Regarding HypA (from UniProt P0A0U5), the Kd in data set [2] was 52 µM.
